How the values were obtained:
Experiment in all cases: yeast two-hybrid screens, LRP5 cytoplasmic domain bait against brain, HeLa and TE85 prey cDNA libraries
alpha-actinin (ACTN1) = biological target: T1, alpha-actinin (ACTN1) (Homo sapiens (Human), UniProt P12814 1-892, limits assumed)
T1 construct: Yeast two-hybrid prey; also called α-actinin
Excerpt: (§1) In order to identify cytoplasmic Zmax1 (LRP5) signaling pathways, the cytoplasmic domain of Zmax1 (LRP5) was subcloned into two bait vectors. The first vector was pDBleu, which was used to screen a brain, and Hela prey cDNA library cloned into the vector pPC86 (Clontech). The second bait vector used was pDBtrp, which was used to screen a cDNA prey library derived from the TE85 osteosarcoma cell line in vector pOP46. Another suitable vector which is widely available, is p86 (Gibco, Iest™ System). Standard techniques known to those skilled in the art were used as described in Fields and Song, 1989 Nature 340: 245-246; U.S. Pat. No. 5,283,173 by Fields and Song; Johnston, 1987 Microbiol. Rev. 51: 458-476; Keegan et al., 1986 Science 231: 699-704; Durfee et al., 1993 Genes Dev. 7: 555-569; Chien et al., 1991 Proc. Natl. Acad. Sci. USA 88: 9578-9582; Fields et al., 1994 Trends in Genetics 10: 286-292; and Gyuris et al., 1993 Cell 75: 791-803. The bait construct and prey cDNA libraries were transformed into yeast using standard procedures.
(§2) The frozen prey library was thawed, and the yeast cells reactivated by growing them in 150 ml YEPD medium with 2% glucose for 2 hrs at 30° C. A filter unit was sterilized with 70% ethanol and washed with sterile water to remove the ethanol. The cell densities of both bait and prey cultures were measured by determining the OD at 600 nm. An appropriate volume of yeast cells that corresponded to a cell number of 1 ml of OD 600=4 of each yeast strain, bait and prey (library) was placed in a 50 ml Falcon tube. The mixture was then filtered through the sterilized filter unit. The filter was then transferred onto a prewarmed YEPD agar plate with the cell side up, removing all air bubbles underneath the filter. Plates were then incubated at 30° C. for 6 hrs. One filter was transferred into a 50 ml Falcon tube, and 10 ml of SD with 2% Glucose was added; cells were resuspended by vortexing for 10 sec. […]

Zyxin (ZYX) = biological target: T2, Zyxin (ZYX) (Homo sapiens (Human), UniProt Q15942 2-572, limits assumed)
T2 construct: Yeast two-hybrid prey
T2 sequence: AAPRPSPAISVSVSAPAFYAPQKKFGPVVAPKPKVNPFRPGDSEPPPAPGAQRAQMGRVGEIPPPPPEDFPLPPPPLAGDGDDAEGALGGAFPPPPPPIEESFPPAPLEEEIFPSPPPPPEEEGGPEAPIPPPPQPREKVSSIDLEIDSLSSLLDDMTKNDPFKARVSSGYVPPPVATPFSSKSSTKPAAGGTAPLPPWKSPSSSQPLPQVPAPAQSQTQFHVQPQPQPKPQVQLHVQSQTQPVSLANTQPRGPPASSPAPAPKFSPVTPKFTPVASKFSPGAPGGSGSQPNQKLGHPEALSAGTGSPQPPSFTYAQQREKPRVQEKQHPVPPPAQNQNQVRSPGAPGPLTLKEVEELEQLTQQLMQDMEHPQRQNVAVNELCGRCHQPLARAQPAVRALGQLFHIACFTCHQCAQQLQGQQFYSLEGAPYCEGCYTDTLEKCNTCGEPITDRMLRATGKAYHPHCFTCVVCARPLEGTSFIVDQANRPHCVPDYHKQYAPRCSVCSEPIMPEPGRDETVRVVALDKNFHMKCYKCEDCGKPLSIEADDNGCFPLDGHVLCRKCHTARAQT
Excerpt: as §1, §2

Axin (AXIN) = biological target: T3, Axin (AXIN) (Homo sapiens (Human), UniProt O15169 1-862, limits assumed)
T3 construct: Yeast two-hybrid prey
Excerpt: as §1, §2

Measured: binding result

T3 sequence (O15169 other isoform, or with tags, fused parts or gaps limits assumed): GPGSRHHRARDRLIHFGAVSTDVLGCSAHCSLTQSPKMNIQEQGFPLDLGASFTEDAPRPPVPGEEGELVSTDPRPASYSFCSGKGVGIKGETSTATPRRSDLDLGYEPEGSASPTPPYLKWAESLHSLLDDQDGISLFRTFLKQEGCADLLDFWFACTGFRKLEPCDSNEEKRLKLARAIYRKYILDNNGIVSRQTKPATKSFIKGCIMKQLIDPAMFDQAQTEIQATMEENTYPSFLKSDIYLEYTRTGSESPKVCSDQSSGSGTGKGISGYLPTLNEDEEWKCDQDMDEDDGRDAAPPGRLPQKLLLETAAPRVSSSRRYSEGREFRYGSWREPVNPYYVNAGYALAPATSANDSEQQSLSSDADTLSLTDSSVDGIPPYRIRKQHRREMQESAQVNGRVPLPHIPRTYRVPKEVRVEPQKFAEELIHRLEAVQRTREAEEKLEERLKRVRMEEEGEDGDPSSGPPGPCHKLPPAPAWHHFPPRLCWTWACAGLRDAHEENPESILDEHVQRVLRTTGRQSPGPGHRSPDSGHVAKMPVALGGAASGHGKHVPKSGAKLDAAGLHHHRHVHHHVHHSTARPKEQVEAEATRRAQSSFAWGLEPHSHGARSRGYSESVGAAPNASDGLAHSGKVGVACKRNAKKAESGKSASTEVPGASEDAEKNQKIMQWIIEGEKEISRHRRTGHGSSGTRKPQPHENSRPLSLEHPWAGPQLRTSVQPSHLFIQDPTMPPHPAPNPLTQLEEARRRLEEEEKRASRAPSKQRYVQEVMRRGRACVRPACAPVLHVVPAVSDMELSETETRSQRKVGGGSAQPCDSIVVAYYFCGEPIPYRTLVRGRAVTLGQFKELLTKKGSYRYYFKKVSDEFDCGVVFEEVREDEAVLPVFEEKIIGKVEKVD
T1 sequence (P12814 whole entry): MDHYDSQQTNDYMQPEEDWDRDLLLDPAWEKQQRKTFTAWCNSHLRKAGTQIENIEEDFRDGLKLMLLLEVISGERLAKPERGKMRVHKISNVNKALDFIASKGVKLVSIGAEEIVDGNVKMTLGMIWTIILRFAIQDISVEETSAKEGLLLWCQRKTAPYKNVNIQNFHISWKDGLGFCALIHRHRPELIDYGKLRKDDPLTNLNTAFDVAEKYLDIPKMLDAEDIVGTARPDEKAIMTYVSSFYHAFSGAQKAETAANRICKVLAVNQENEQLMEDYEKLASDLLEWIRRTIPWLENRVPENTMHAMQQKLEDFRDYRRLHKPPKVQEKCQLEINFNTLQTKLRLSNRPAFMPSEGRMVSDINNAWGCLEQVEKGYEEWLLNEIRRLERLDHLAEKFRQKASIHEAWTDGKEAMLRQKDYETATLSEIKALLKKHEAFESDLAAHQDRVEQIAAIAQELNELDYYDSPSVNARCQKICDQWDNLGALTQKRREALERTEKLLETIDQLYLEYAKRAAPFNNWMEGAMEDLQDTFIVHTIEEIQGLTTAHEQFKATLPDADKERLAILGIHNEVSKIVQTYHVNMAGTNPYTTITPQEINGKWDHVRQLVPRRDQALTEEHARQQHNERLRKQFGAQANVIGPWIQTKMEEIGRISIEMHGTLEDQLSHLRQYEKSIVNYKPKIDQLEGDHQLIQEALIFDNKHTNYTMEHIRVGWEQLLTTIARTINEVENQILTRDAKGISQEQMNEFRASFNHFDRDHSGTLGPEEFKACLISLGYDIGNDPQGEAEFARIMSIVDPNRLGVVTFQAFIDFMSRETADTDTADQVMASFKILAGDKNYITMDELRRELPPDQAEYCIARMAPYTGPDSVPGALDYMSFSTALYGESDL

B1: Zmax1 (LRP5) cytoplasmic domain bait (entire cytoplasmic domain and a portion of the transmembrane domain) (receptor)
chain: RVVCQRYAGANGPFPHEYVSGTPHVPLNFIAPGGSQHGPFTGIACGKSMMSSVSLMGGRGGVPLYDRNHVTGASSSSSSSTKATLYPPILNPPPSPATDPSLYNMDMFYSSNIPATVRPYRPYIIRGMAPPTTPCSTDVCDSDYSASRWKASKYYLDLNSDSDPYPPPPTPHSQYLSAEDSCPPSPATERSYFHLFPPPPSPCTDSS
notes: Yeast two-hybrid bait; also called cytoplasmic domain of Zmax1 (LRP5); cytoplasmic domain of LRP5
binds: all assays above

Source: patent publication US20090136507A1 (published 2009)
